Like-named read-outs stand apart in the source and are kept apart here. Values belong to the binder of their own block, whether it stands above or below them. Non-standard residues stand in square brackets, D forms with d. Primed or numbered codes have the meaning given here. No end group written: not given here. APC = aminopyrrolidine carboxylic acid (2-aminopyrrolidine-4-carboxylic acid); ACPC″ = 2-aminocyclopentane carboxylic acid (X); ACPC = 2-aminocyclopentane carboxylic acid; β3hS = N[C@@H](CO)CC(=O)O; Aib = CC(C)(N)C(=O)O
Experiments:
[1] = biological target: T1, human parathyroid hormone receptor 1, wild-type (hPTHR-1) (human, UniProt Q03431 27-593); experiment: cell-based or functional assay
T1 sequence (looked up): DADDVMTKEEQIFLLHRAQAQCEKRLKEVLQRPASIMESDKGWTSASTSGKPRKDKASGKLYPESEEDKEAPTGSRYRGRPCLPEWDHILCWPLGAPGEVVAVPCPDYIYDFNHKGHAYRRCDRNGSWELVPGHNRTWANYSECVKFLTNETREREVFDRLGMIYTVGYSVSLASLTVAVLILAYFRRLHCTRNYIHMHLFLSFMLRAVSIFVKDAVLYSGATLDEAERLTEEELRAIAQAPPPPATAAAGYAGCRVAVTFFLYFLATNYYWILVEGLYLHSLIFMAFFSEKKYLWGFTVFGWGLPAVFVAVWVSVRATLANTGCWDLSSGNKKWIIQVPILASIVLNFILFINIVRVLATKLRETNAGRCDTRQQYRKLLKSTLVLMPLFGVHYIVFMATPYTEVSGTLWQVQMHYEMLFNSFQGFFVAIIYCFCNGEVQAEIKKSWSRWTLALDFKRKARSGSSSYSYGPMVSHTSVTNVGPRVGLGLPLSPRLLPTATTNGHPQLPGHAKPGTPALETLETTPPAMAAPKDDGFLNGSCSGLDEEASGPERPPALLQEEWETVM

[2] = biological target: T2, PTHR-1 (species and cells not stated for the assay) (Homo sapiens (Human), UniProt Q03431 27-593); experiment: cell-based or functional assay
T2 sequence: T1 sequence (looked up)

[3] = biological target: T1, human parathyroid hormone receptor 1, …; experiment: R0 binding, GP2.3 membranes (human PTHR-1); tracer not stated here
[4] = biological target: T2, PTHR-1 (species and cells not stated …); experiment: cell-based or functional assay; remark: listed apart in the source
[5] = biological target: T2, PTHR-1 (species and cells not stated …); experiment: cell-based or functional assay; remark: listed apart in the source
[6] = biological target: parathyroid hormone receptor-2 (PTHR-2); experiment: cell-based or functional assay
parathyroid hormone receptor-2 (PTHR-2), sequence (P49190 whole entry): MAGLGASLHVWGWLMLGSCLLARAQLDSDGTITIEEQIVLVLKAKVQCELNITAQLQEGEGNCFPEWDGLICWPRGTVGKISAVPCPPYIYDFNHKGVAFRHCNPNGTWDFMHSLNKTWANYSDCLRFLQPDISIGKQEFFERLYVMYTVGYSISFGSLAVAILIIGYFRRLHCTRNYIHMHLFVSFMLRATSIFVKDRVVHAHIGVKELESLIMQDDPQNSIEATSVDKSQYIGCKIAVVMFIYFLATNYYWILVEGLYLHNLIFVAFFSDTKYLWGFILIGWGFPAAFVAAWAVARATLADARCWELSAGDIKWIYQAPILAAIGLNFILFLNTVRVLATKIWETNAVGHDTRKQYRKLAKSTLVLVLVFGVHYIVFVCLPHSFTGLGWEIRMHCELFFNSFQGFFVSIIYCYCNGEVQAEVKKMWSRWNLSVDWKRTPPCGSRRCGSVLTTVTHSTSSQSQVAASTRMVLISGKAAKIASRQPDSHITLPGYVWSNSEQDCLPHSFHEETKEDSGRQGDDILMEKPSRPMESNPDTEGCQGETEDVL

[7] = biological target: T1, human parathyroid hormone receptor 1, …; experiment: cell-based or functional assay; remark: listed apart in the source
delNT PTHR1 = biological target: T3, delNT PTHR1 (human, UniProt Q03431 27-593); experiment: cell-based or functional assay
T3 sequence (looked up): T1 sequence (looked up)

[8] = biological target: T2, PTHR-1 (species and cells not stated …); experiment: cell-based or functional assay; remark: listed apart in the source
[9] = biological target: T1, human parathyroid hormone receptor 1, …; experiment: cell-based or functional assay; remark: listed apart in the source
[10] = biological target: T1, human parathyroid hormone receptor 1, …; experiment: cell-based or functional assay; remark: listed apart in the source
[11] = biological target: T4, rat parathyroid hormone receptor 1, wild-type (rPTHR-1) (rat, UniProt P25961 27-591); experiment: cell-based or functional assay
T4 sequence (looked up): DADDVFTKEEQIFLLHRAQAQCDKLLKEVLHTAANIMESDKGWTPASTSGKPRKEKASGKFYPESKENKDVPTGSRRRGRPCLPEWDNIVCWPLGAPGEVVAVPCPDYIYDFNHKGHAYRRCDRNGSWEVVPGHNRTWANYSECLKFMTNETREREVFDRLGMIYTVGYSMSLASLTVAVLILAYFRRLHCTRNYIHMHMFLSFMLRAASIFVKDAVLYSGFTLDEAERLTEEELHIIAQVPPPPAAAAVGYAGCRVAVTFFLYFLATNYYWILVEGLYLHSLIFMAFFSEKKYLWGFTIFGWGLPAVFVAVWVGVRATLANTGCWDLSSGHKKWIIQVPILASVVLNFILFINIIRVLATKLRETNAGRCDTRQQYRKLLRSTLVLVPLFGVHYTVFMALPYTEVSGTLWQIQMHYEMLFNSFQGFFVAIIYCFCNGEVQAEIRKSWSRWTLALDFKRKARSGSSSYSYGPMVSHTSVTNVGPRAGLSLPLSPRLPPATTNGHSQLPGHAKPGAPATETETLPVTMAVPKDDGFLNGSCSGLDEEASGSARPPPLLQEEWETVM

[12] = biological target: T1, human parathyroid hormone receptor 1, …; experiment: R0 state; 125I-PTH(1-34) displacement; COS-7 membranes, hPTHR-1, GTPγS
Description: (§1) ^aValues are means of n ≧4 experiments, each performed in duplicate.

[13] = biological target: T1, human parathyroid hormone receptor 1, …; experiment: as above; remark: listed apart in the source
Description: (§2) FIGS. 6A, 6B, 6C, 6D, 6E, and 6F constitute a series of graphs depicting binding of various analogs to the R⁰ and RG forms of human PTHR-1 (hPTHR-1). […] Data are means (±SEM) of n≧4 experiments, each performed in duplicate.

[14] = biological target: T4, rat parathyroid hormone receptor 1, …; experiment: R0 state; 125I-PTH(1-34) displacement; COS-7 membranes, rPTHR-1, GTPγS
Description: (§3) Binding inhibition constants are expressed as the -log (IC50) and corresponding nanoMolar (nM) values. Values are means (±SEM) of the number of experiments shown (n), each performed in duplicate.

[15] = biological target: T4, rat parathyroid hormone receptor 1, …; experiment: RG state; 125I-M-PTH(1-15) displacement; COS-7 membranes, rPTHR-1 + Gαs mutant
Description: as §3

[16] = biological target: T1, human parathyroid hormone receptor 1, …; experiment: ratio of R0 IC50 to RG IC50, hPTHR-1
[17] = biological target: T4, rat parathyroid hormone receptor 1, …; experiment: ratio of R0 IC50 to RG IC50, rPTHR-1
Description: as §3

[18] = biological target: T1, human parathyroid hormone receptor 1, …; experiment: RG state; 125I-M-PTH(1-15) displacement; COS-7 membranes, hPTHR-1 + Gαs mutant
Description: as §1

[19] = biological target: T1, human parathyroid hormone receptor 1, …; experiment: as above; remark: listed apart in the source
Description: as §2

Binder: [ACPC]VSE[ACPC]Q[ACPC]LHDKGKSIQDLRRRFFLHKLIAEIHTA-NH2 (not fully specified; also: D6 β3 residues, positions not shown (marking lost)) [D6 hPTHrP(1-34) ACPC(1,5,7)]
cAMP EC50 [1]: 1.03 nM

Binder: [ACPC]VSE[ACPC]Q[ACPC]MHNLGKHLNSMERVEWLRKKLQDVHNF-NH2 [ACPC(1,5,7)]
Fold PTH [5]: 36.7 fold | cAMP EC50 [5]: 2.99 nM | cAMP response PTH2R/PTH1R [6]: 11 ratio

Binder: SVSEIQ[ACPC]MHNLGKHLNSMERVEWLRKKLQDVHNF-NH2 [ACPC(7) PTH(1-34)]
Fold PTH [7]: 1.3 fold | cAMP EC50 [7]: 0.12 nM | Fold PTH (delNT PTHR1): 74 fold | cAMP EC50 (delNT PTHR1): 4600 nM | cAMP response PTH1R/PTH2R [8]: 44 ratio

B2: B3 (peptide)
peptide: SVSEIQLMHNLGKHLNSMERVEWLRKKLQDVQNF-NH2
modifications: not fully specified (residue 32); printed as SVSEIQLMHNLGKHLNSMERVEWLRKKLQDVQNF-NH2; also: three β3 residues, positions not given here in text
notes: also called α/β-peptide B3
cAMP EC50 [9]: 0.11 nM | cAMP Max [9]: 1.08 relative to PTH(1-34) | cAMP EC50 [10]: 0.11 nM | cAMP Max [10]: 234 cps × 10^-3 | cAMP pEC50 [10]: 9.94 | cAMP EC50 [11]: 0.55 nM | cAMP Max [11]: 69 cps × 10-3 | cAMP pEC50 [11]: 9.26 | IC50 [12]: 80 nM | -log (IC50) [13]: 7.1 | IC50 [13]: 80 nM | -log (IC50) [14]: 6.95 | IC50 [14]: 111 nM | -log (IC50) [15]: 8.07 | IC50 [15]: 8.6 nM

B3: D7 (peptide)
peptide: SVSEIQLMHNLGKWLNSMERVEWLRKKLQDVHNF-NH2
modifications: not fully specified (residue 14); printed as SVSEIQLMHNLGKWLNSMERVEWLRKKLQDVHNF-NH2; also: seven β3 residues, positions not given here in text
notes: also called α/β-peptide D7
cAMP EC50 [9]: 0.39 nM | cAMP Max [9]: 0.85 relative to PTH(1-34) | Fold PTH(1-34) [10]: 2.26 fold | cAMP EC50 [10]: 0.39 nM | cAMP Max [10]: 184 cps × 10^-3 | cAMP pEC50 [10]: 9.41 | Fold PTH(1-34) [11]: 3.89 fold | cAMP EC50 [11]: 1.62 nM | cAMP Max [11]: 40 cps × 10-3 | cAMP pEC50 [11]: 8.79 | R^0/RG [16]: 15 ratio | R^0/RG [17]: 7 ratio | IC50 [12]: 3.5 nM | -log (IC50) [13]: 8.45 | IC50 [13]: 3.5 nM | -log (IC50) [14]: 7.83 | IC50 [14]: 14.8 nM | IC50 [18]: 0.24 nM | -log (IC50) [19]: 9.63 | IC50 [19]: 0.24 nM | -log (IC50) [15]: 8.69 | IC50 [15]: 2 nM

Other lines, results leading:

cAMP EC50 [1]: 0.65 nM
Binder: AVSEHQLLHDKGK[ACPC]IQD[ACPC]RRR[APC]FLH[APC]LIA[ACPC]IHT[ACPC]-NH2 [CycD6 hPTHrP(1-34)]

cAMP EC50 [2]: 0.21 nM | IC50 [3]: 1.54 nM
Binder: [β3hS]V[Aib]EIQ[ACPC″]MHNLGK[ACPC″]LNS[ACPC″]ERV[APC]WLR[APC]KLQ[ACPC″]VHN[ACPC″]-NH2 [FcycD6_β3Ser(1), Aib(3), ACPC (7)]

EC50(+)inhibitor/EC50(-)inhibitor [4]: 60.1 ratio | EC50 of PTH(1-34) signaling with 1 µM inhibitor [4]: 9.47 nM
B1: bPTH(7-34)dTrp12 (peptide)
peptide: FMHNL[dW]KHLSSMERVEWLRKKLQDVHNF-NH2
modifications: N-terminus assumed
SMILES: CSCC[C@H](NC(=O)[C@H](CO)NC(=O)[C@H](CO)NC(=O)[C@H](CC(C)C)NC(=O)[C@H](Cc1c[nH]cn1)NC(=O)[C@H](CCCCN)NC(=O)[C@@H](Cc1c[nH]c2ccccc12)NC(=O)[C@H](CC(C)C)NC(=O)[C@H](CC(N)=O)NC(=O)[C@H](Cc1c[nH]cn1)NC(=O)[C@H](CCSC)NC(=O)[C@@H](N)Cc1ccccc1)C(=O)N[C@@H](CCC(=O)O)C(=O)N[C@@H](CCCNC(=N)N)C(=O)N[C@H](C(=O)N[C@@H](CCC(=O)O)C(=O)N[C@@H](Cc1c[nH]c2ccccc12)C(=O)N[C@@H](CC(C)C)C(=O)N[C@@H](CCCNC(=N)N)C(=O)N[C@@H](CCCCN)C(=O)N[C@@H](CCCCN)C(=O)N[C@@H](CC(C)C)C(=O)N[C@@H](CCC(N)=O)C(=O)N[C@@H](CC(=O)O)C(=O)N[C@H](C(=O)N[C@@H](Cc1c[nH]cn1)C(=O)N[C@@H](CC(N)=O)C(=O)N[C@@H](Cc1ccccc1)C(N)=O)C(C)C)C(C)C

cAMP EC50 [2]: 0.79 nM | IC50 [3]: 89.4 nM
Binder: [β3hS]VSE[ACPC″]Q[ACPC″]MHNLGK[ACPC″]LNS[ACPC″]ERV[APC]WLR[APC]KLQ[ACPC″]VHN[ACPC″]-NH2 [FcycD6_β3Ser(1), ACPC(5,7)]

Fold PTH [5]: 234 fold | cAMP EC50 [5]: 19.1 nM | cAMP EC50 [2]: 25.9 nM | cAMP response PTH2R/PTH1R [6]: 45 ratio
Binder: [ACPC″]VSE[ACPC″]Q[ACPC″]MHNLGK[ACPC″]LNS[ACPC″]ERV[APC]WLR[APC]KLQ[ACPC″]VHN[ACPC″]-NH2 [FcycD6_ACPC(1,5,7)]

cAMP EC50 [1]: 1.08 nM
Binder: [ACPC]VSE[ACPC]Q[ACPC]LHDKGK[ACPC]IQD[ACPC]RRR[APC]FLH[APC]LIA[ACPC]IHT[ACPC]-NH2 [CycD6 hPTHrP(1-34) ACPC(1,5,7)]

Reference: patent US20140378382A1 (WISCONSIN ALUMNI RESEARCH FOUNDATION, published 2014)
